Assay results published in patent US20200392225A1 (Novartis, published 2020).
Read-outs that look alike come from different tables or passages of the source. Each block holds one binder with its values, some of them ahead of it.

Tests used:
human NPR1-ANP complex [1] = biological target: T1, human NPR1-ANP complex (human, UniProt P01160 124-151, limits assumed); test: ELISA, IgG titrated on the antigen with 250 fold molar excess of ANP [cont.]
T1 construct: Receptor antigen measured in the presence of ANP; also called hNPR1 + ANP; hNPR1-ANP-complex
T1 sequence: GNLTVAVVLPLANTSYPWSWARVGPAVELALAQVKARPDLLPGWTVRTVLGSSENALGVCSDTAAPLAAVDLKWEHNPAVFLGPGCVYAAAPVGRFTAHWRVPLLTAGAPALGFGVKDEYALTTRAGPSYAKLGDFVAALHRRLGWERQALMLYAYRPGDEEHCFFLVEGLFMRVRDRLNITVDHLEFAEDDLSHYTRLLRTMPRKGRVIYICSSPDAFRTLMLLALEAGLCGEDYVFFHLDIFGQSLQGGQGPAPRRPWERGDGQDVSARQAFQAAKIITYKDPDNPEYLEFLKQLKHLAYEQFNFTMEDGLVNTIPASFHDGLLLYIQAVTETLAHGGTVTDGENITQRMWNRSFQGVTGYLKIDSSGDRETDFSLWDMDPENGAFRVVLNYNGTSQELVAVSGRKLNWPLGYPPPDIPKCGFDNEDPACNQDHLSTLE
T1 sequence (peptide): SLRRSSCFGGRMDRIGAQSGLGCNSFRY

[2] = biological target: T2, human NPR1 expressed on CHO-K1 cells in the presence of ANP (human, UniProt P01160 124-151); test: flow cytometry, 1 uM IgG, +100 nM ANP
T2 construct: also called hNPR1 CHO K1 + 100 nM ANP
T2 sequence: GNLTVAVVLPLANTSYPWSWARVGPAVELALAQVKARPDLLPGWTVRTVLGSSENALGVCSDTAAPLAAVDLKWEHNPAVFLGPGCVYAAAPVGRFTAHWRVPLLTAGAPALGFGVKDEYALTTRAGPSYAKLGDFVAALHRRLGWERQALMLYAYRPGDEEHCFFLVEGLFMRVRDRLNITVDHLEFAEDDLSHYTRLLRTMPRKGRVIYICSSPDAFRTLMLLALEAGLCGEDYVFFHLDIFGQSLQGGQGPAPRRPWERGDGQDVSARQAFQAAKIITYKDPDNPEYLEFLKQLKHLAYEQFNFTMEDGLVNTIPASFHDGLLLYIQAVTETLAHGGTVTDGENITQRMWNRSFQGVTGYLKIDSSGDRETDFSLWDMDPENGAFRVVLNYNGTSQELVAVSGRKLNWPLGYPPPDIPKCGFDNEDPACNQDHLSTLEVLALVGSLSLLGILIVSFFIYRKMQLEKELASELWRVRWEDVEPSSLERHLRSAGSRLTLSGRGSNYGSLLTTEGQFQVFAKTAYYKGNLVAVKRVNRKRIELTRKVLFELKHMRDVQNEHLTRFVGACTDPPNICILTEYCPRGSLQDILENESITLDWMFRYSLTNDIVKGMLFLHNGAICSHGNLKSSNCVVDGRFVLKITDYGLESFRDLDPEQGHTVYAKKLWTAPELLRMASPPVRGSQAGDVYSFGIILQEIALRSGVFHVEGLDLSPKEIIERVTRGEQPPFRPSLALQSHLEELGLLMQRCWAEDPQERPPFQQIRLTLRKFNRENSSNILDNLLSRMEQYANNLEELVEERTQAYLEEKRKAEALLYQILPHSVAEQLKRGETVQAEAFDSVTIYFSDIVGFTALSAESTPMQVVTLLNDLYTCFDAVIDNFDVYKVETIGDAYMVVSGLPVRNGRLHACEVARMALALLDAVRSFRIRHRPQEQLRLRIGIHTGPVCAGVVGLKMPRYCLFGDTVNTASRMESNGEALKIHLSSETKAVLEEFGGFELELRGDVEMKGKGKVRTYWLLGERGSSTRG
T2 sequence (peptide): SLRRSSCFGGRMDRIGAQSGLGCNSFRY

human NPR1-ANP complex [3] = biological target: T1, human NPR1-ANP complex; test: ELISA, IgG titrated on the antigen with 250 fold molar excess of ANP [cont.]; remark: listed apart in the source
[4] = biological target: T3, human NPR1 (Natriuretic Peptide Receptor 1), recombinant antigen (human, UniProt P16066 33-473); test: FRET assay on hNPR1, competitor Cy5-labeled ANP [cont.]
T3 construct: also called hNPR1; NPR1-hFc
T3 sequence: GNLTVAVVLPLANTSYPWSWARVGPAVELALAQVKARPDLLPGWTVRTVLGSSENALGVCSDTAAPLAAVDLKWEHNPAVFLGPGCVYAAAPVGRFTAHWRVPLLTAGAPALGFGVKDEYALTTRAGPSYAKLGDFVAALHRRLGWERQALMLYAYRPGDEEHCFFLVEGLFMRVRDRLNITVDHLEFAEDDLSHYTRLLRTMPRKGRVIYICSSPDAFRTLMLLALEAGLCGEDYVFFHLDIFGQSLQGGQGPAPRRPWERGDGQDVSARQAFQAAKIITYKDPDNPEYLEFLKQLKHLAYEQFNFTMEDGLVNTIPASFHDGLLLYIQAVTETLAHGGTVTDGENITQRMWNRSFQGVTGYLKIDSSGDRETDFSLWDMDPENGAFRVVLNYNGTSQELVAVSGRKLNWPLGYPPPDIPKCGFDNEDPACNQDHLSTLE

human NPR1-ANP complex [5] = biological target: T1, human NPR1-ANP complex; test: ELISA, 1 uM IgG, +100 nM ANP
rat NPR1-ANP complex [6] = biological target: T4, rat NPR1-ANP complex (rat); test: ELISA, 1 uM IgG, +100 nM ANP
T4 construct: Rat receptor antigen measured in the presence of ANP; also called rNPR1 + ANP; rNPR1-ANP-complex

[7] = biological target: T5, constitutively active human NPR1 mutant (W74R), recombinant antigen (human, UniProt P16066 33-473); test: ELISA, IgG titrated on the antigen without ANP [cont.]
T5 construct: also called W74R hNPR1
T5 sequence: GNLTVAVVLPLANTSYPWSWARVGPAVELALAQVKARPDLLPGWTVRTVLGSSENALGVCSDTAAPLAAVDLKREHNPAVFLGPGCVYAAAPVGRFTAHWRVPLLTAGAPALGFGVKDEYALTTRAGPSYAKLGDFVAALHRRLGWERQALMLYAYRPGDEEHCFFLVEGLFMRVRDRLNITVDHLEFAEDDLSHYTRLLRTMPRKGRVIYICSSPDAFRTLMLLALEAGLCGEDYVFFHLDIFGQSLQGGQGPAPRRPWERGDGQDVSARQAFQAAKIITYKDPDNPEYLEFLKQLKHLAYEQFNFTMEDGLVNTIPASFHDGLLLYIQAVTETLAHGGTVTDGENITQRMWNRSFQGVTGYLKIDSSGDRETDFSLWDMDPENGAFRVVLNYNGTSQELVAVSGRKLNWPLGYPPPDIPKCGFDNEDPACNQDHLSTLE

[8] = biological target: T3, human NPR1 (Natriuretic Peptide …); test: as above
[9] = biological target: T6, human NPR1 expressed on CHO-K1 cells (human, UniProt P16066 33-1061); test: cell-based or functional assay
T6 sequence: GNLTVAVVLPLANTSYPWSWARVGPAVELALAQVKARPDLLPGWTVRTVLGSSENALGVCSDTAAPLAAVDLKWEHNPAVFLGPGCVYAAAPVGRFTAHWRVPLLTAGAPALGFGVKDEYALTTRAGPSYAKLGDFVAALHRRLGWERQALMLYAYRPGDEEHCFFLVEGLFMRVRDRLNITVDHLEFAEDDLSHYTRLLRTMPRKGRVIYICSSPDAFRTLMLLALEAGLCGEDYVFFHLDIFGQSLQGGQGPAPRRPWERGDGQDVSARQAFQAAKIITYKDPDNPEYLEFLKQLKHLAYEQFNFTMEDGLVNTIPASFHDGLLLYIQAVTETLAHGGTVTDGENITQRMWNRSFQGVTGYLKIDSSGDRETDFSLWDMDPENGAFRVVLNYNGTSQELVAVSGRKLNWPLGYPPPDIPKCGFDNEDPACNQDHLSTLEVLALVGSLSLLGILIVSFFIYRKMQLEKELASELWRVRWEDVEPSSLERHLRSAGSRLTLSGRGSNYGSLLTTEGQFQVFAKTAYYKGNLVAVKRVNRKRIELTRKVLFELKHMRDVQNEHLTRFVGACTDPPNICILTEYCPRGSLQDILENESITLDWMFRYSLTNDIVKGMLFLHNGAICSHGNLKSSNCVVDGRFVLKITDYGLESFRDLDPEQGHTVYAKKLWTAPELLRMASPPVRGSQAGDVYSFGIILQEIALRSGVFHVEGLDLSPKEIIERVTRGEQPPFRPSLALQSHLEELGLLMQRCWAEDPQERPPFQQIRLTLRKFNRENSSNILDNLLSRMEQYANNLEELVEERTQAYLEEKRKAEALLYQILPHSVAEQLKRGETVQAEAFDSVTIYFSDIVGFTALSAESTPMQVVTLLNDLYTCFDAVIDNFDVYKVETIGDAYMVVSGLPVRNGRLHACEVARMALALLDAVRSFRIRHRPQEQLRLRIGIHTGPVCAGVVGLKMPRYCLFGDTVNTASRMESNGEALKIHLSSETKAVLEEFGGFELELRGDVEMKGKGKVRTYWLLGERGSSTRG

[10] = biological target: T6, human NPR1 expressed on CHO-K1 cells; test: flow cytometry, 1 uM IgG
[11] = biological target: T5, constitutively active human NPR1 mutant …; test: ELISA, 1 uM IgG
[12] = biological target: T3, human NPR1 (Natriuretic Peptide …); test: ELISA, 1 uM IgG
rat NPR1-ANP complex [13] = biological target: T4, rat NPR1-ANP complex; test: ELISA, IgG titrated on the antigen with 250 fold molar excess of ANP [cont.]

EC50 (read off the curve) (human NPR1-ANP complex [1]): ~0.5 nM
B1: XX08 (antibody, human IgG1, kappa, L234A L235A, V domains shown)
VH: EVQLLESGGGLVQPGGSLRLSCAASGFTFNTHYIHWVRQAPGKGLEWVSSIGGQGGMTLYADSVKGRFTISRDNSKNTLYLQMNSLRAEDTAVYYCARERGYVYYHMFDPWGQGTLVTVSS
VL: DIVLTQSPATLSLSPGERATLSCRASQSITRNYLAWYQQKPGQAPRLLIYGASSRATGIPARFSGSGSGTDFTLTISSLEPEDFAVYYCQQHSMYPRTFGQGTKVEIKR
notes: the panel axis reads IgG conc; [nM]; the list MOLECULES holds only the FabCys format; also called XX08 IgG; XX08_LALA

flow cytometry S/BG [2]: 18 S/BG | EC50 (read off the curve) (human NPR1-ANP complex [3]): ~8 nM | IC50 (read off the curve) [4]: ~5 nM | ELISA IgG binding at 1 uM IgG (unit not given) (human NPR1-ANP complex [5]): 102 | ELISA IgG binding at 1 uM IgG (unit not given) (rat NPR1-ANP complex [6]): 4 | EC50 (read off the curve) [7]: ~5 nM | EC50 (read off the curve) [8]: ~8 nM | cGMP conc [nM] at 1 uM IgG, +0.075 nM ANP [9]: 15 nM | cGMP conc [nM] at 1 uM IgG, without ANP [9]: 12 nM | flow cytometry S/BG [10]: 26 S/BG | ELISA IgG binding at 1 uM IgG (unit not given) [11]: 83 | ELISA IgG binding at 1 uM IgG (unit not given) [12]: 91
B2: YY06 IgG (YY06_LALA) (antibody, V domains shown)
VH: EVQLLESGGGLVQPGGSLRLSCAASGFTFSSYAISWVRQAPGKGLEWVSAISGSGGSTYYAESVKGRFTISRDNSKNTLYLQMNSLRAEDTAVYYCARPYLGDRRSYGFDHWGQGTLVTVSS
VL: QSALTQPASVSGSPGQSITISCTGTSSDVGSYNLVSWYQQHPGKAPKLMIYEGSKRPSGVSNRFSGSKSGNTASLTISGLQAEDEADYYCSSYGFHIVVVVFGGGTKLTVLG

EC50 (read off the curve) (rat NPR1-ANP complex [13]): ~0.2 nM
B3: XX07 IgG (antibody, V domains shown)
VH: QVQLLESGGGLVQPGGSLRLSCAASGFTFSSYWMNWVRQAPGKGLEWVSAISSDGSYTYYADSVKGRFTISRDNSKNTLYLQMNSLRAEDTAVYYCARDRYSMIYSYGAGAFDYWGQGTLVTVSS
VL: DIQMTQSPSSLSASVGDRVTITCRASQGISSYLAWYQQKPGKAPKLLIYTASTLQSGVPSRFSGSGSGTDFTLTISSLQPEDFATYYCQQIWTVPRTFGQGTKVEIKR
notes: also called XX07_LALA
